Molecular target: HLA-A*02:01 (Homo sapiens, UniProt P04439, D140Y/D185E/D98H/E176V/E277Q/G131W/G231S/I119V/I121R/I166T/I218V/L300P/L318F/N151K/N90K/P208A/P217A/Q86G/Q94H/R138H/R169H/T345S)
Assay: MHC binding assay (UV-ligand exchange, beta2m ELISA)
Conditions: binding to HLA-A*02:01, β2m ELISA
Description: Candidate peptides for T cell based therapies according to the present invention were further tested for their MHC binding capacity (affinity). The individual peptide-MHC complexes were produced by UV-ligand exchange, where a UV-sensitive peptide is cleaved upon UV-irradiation, and exchanged with the peptide of interest as analyzed. Only peptide candidates that can effectively bind and stabilize the peptide-receptive MHC molecules prevent dissociation of the MHC complexes. To determine the yield of the exchange reaction, an ELISA was performed based on the detection of the light chain (β2m) of stabilized MHC complexes. The assay was performed as generally described in Rodenko et al. (Rodenko et al., 2006).
96 well MAXISorp plates (NUNC) were coated over night with 2 ug/ml streptavidin in PBS at room temperature, washed 4× and blocked for 1 h at 37° C. in 2% BSA containing blocking buffer. Refolded HLA-A*02:01/MLA-001 monomers served as standards, covering the range of 15-500 ng/ml. Peptide-MHC monomers of the UV-exchange reaction were diluted 100 fold in blocking buffer. Samples were incubated for 1 h at 37° C., washed four times, incubated with 2 ug/ml HRP conjugated anti-β2m for 1 h at 37° C., washed again and detected with TMB solution that is stopped with […]. Absorption was measured at 450 nm. Candidate peptides that show a high exchange yield (preferably higher than 50%, most preferred higher than 75%) are generally preferred for a generation and production of antibodies or fragments thereof, and/or T cell receptors or fragments thereof, as they show sufficient avidity to the MHC molecules and prevent dissociation of the MHC complexes.

Substance | Peptide exchange (MHC class I binding score, peptide exchange yield)
25 (LLWGHPRVALA; listed as Homo sapiens) [compound 25] | +++ (≧50 = +++)
191 (AAIEIFEKV; listed as Homo sapiens) [compound 191] | +++ (≧50 = +++)
245 (ALLEEEEGV; listed as Homo sapiens) [compound 245] | ++ (≧20% = ++)
12 (RLLDPKTIFL; listed as Homo sapiens) [compound 12] | +++ (≧50 = +++)
199 (SVADLAHVL; listed as Homo sapiens) [compound 199] | ++ (≧20% = ++)
272 (FVMEGEPPKL; listed as Homo sapiens) [compound 272] | ++ (≧20% = ++)
286 (FLTEMVHFI; listed as Homo sapiens) [compound 286] | +++ (≧50 = +++)
169 (ALADLSVAV; listed as Homo sapiens) [compound 169] | +++ (≧50 = +++)
28 (IKVTDPQLLEL; listed as Homo sapiens) [compound 28] | ++ (≧20% = ++)
130 (QLYGSAITL; listed as Homo sapiens) [compound 130] | +++ (≧50 = +++)
93 (RLYGYFHDA; listed as Homo sapiens) [compound 93] | ++ (≧20% = ++)
79 (TVLEEIGNRV; listed as Homo sapiens) [compound 79] | ++ (≧20% = ++)
154 (AIIKEIQTV; listed as Homo sapiens) [compound 154] | ++ (≧20% = ++)
285 (MLLDTVQKV; listed as Homo sapiens) [compound 285] | +++ (≧50 = +++)
161 (NLLDENVCL; listed as Homo sapiens) [compound 161] | ++++ (≧75% = ++++)
171 (LLLLDVPTA; listed as Homo sapiens) [compound 171] | ++ (≧20% = ++)
83 (GLLENSPHL; listed as Homo sapiens) [compound 83] | ++ (≧20% = ++)
225 (FLPQPVPLSV; listed as Homo sapiens) [compound 225] | +++ (≧50 = +++)
37 (QIVELIEKI; listed as Homo sapiens) [compound 37] | ++ (≧20% = ++)
47 (GLNGFNVLL; listed as Homo sapiens) [compound 47] | +++ (≧50 = +++)
270 (TLLTFFHEL; listed as Homo sapiens) [compound 270] | +++ (≧50 = +++)
146 (VVAAHLAGA; listed as Homo sapiens) [compound 146] | ++ (≧20% = ++)
42 (KQMSISTGL; listed as Homo sapiens) [compound 42] | ++ (≧20% = ++)
193 (ALFHMNILL; listed as Homo sapiens) [compound 193] | +++ (≧50 = +++)
138 (GIINKLVTV; listed as Homo sapiens) [compound 138] | ++ (≧20% = ++)
166 (LLGDSSFFL; listed as Homo sapiens) [compound 166] | +++ (≧50 = +++)

Substance | Peptide exchange (MHC class I binding score, peptide exchange yield)
252 (SLMEKNQSL; listed as Homo sapiens) [compound 252] | ++ (≧20% = ++)
222 (LLTGVFAQL; listed as Homo sapiens) [compound 222] | ++ (≧20% = ++)
40 (KIWEELSVLEV; listed as Homo sapiens) [compound 40] | +++ (≧50 = +++)
229 (YLYELEHAL; listed as Homo sapiens) [compound 229] | ++ (≧20% = ++)
58 (HLLGEGAFAQV; listed as Homo sapiens) [compound 58] | +++ (≧50 = +++)
52 (TIGIPFPNV; listed as Homo sapiens) [compound 52] | ++ (≧20% = ++)
111 (AQLEGKLVSI; listed as Homo sapiens) [compound 111] | +++ (≧50 = +++)
85 (KLLDKPEQFL; listed as Homo sapiens) [compound 85] | ++ (≧20% = ++)
224 (LLFDWSGTGRADA; listed as Homo sapiens) [compound 224] | +++ (≧50 = +++)
256 (FLNDIFERI; listed as Homo sapiens) [compound 256] | +++ (≧50 = +++)
165 (SLLDYEVSI; listed as Homo sapiens) [compound 165] | +++ (≧50 = +++)
124 (ALLLRLFTI; listed as Homo sapiens) [compound 124] | ++ (≧20% = ++)
173 (RLIDIYKNV; listed as Homo sapiens) [compound 173] | +++ (≧50 = +++)
20 (ALVEKGEFAL; listed as Homo sapiens) [compound 20] | ++ (≧20% = ++)
258 (QLVQRVASV; listed as Homo sapiens) [compound 258] | ++ (≧20% = ++)
13 (RLHDENILL; listed as Homo sapiens) [compound 13] | +++ (≧50 = +++)
177 (ALINVLNAL; listed as Homo sapiens) [compound 177] | +++ (≧50 = +++)
163 (GLEERLYTA; listed as Homo sapiens) [compound 163] | ++ (≧20% = ++)
123 (QTAPEEAFIKL; listed as Homo sapiens) [compound 123] | + (≧10% = +)
207 (KLFETVEEL; listed as Homo sapiens) [compound 207] | +++ (≧50 = +++)
213 (ILAVDGVLSV; listed as Homo sapiens) [compound 213] | +++ (≧50 = +++)
167 (LVVDEGSLVSV; listed as Homo sapiens) [compound 167] | +++ (≧50 = +++)
160 (TLQEWLTEV; listed as Homo sapiens) [compound 160] | +++ (≧50 = +++)
106 (VLLGSVVIFA; listed as Homo sapiens) [compound 106] | ++ (≧20% = ++)
218 (SLTGANITV; listed as Homo sapiens) [compound 218] | +++ (≧50 = +++)

From US9802997B2, “Peptides and combination of peptides for use in immunotherapy against various tumors” (immatics biotechnologies GmbH, priority 2015, dated 2017)
